Laboratory results taken from US20150010566A1 (AIMM THERAPEUTICS B V, published 2015).

B1: AT10-001 (antibody, V domains shown)
VH: EVQLLESGGGLVQPGGSLRLSCAASGFSFSTYAMSWVRQAPGKGLEWVSGISGSGESTYYADSVKGRFTVSRDNSKNTLYLQMNSLRAEDTAVYYCAKQGDHIAWLLRGINFDYWGQGVLVTVSS
VL: EIVLTQSPGTLSLSPGERATLSCRASQSVSSSYLAWYQQKPGQAPRLLIYGASTRATGIPDRFSGRGSGTDFTLTISSLEPEDFAVYYCQNYGSPFLFTFGPGTKVDIKR
B2: AT10-003 (antibody, V domains shown)
VH: QVHLVQSGAEVRKPGASVKVSCKVSGYTLNELSIHWLRQAPGRGLEWMGSFDPEDGETIYAQKFQGRVTMTGDTSTDTAYLELTSLRSEDTALYYCARGWGAVTSPFDFWGQGTLVTVSS
VL: DIVMTQSPLSLPVTPGEPASISCRSSQSLLHSNGHIYFDWYLQKPGQSPQLLIYLVSKRASGVPDRFSGSGSGTDFTLKISRVEAEDVGVYYCMQALETPFTFGPGTKVHIKR
B3: AT10-002 (antibody, V domains shown)
VH: QLQLQESGPRLVKPSETLSLTCSVSGVSISSSNYYWGWIRQPPGKGLEWIGTIYHSGSTYYNPSLKSRLIISVDTSKNQFYLQLTSLTAADSAVYYCATGGGFGWSQTYFGYWGQGTLVTASS
VL: QSALTQPASVSGSPGQSITISCTGTSSDVGAYNYVSWYQHHPGKAPKLMIYDVTYRPSGVSTRFSGSKSGNTASLTISGLQAEDEADYYCSSQSRSSTLVIFGGGTKLTVLG
B4: AT10-005 (antibody, V domains shown)
VH: QVQLVQSGAEVKKPGSSVKVSCKASGGAFSNYAISWVRQAPGQGLEWMGGIIPIFGTTNYAQKFQGRVTITADKFTTIAYMELRSLRSEDTAVYYCARHGGVYYYGSASSGWFDPWGQGTLVTVSS
VL: EIVLTQSPGTLSLSPGERATLSCRASQSVSSSYLAWYQQKPGQAPRLLIFGASTRATGIPDRFSGSGSGTDFTLTISRLEPEDFAVFYCQQYGSLPLTFGGGTKVEIKG
B5: AT10-004 (antibody, V domains shown)
VH: QVQLVQSGAEVRKPGASVKVSCKASGYTFTRHGISWVRQAPGQGLEWMGWISAYTGDTDYAQKFQGRVTMTTDTSTNTAYMELRSLRSDDAAVYYCARLRLQGEVVVPPSQSNWFDPWGQGTLVTVSS
VL: EIVLTQSPATLSLYPGERATLSCRASQSVSRYLAWYQQKPGQAPRLLIYDASNRATGIPARFSGSGSGTDFTLTISSLEPEDFAVYYCQQRSNWLKITFGQGTRLEIKG

These binders were tested against HA of Influenza H1N1 (A/Hawaii/31/2007), on infected MDCK-SIAT cells or on virus (Influenza A virus H1N1 A/Hawaii/31/2007) (assay: cell-based or functional assay).
With B1 the “IC50, in vitro virus neutralization on MDCK-SIAT cells” value (“IC50 … on MDCK-SIAT cells” below) was > 15 µg/mL.

The binders below were run against HA of H3N2 HKX-31 virus (Influenza A virus H3N2 HKX-31) (assay: cell-based or functional assay).
With B1 the “IC50 … on MDCK-SIAT cells” value was 2.1 µg/mL. With B2 the “IC50 … on MDCK-SIAT cells” value was > 15 µg/mL. In the case of B3, the “IC50 … on MDCK-SIAT cells” value is reported as 0.25 µg/mL.

Each binder was assayed against HA of H5N1 A/turkey/Turkey/05 virus (Influenza A virus H5N1 …) (assay: cell-based or functional assay).
With B4 the “IC50, in vitro virus neutralization on MDCK cells” value (“IC50 … on MDCK cells” for short) was 1.3 µg/mL. In the case of B1, the “IC50 … on MDCK cells” value is reported as > 15 µg/mL. For B2, the “IC50 … on MDCK cells” value was > 15 µg/mL. With B3 the “IC50 … on MDCK cells” value was > 15 µg/mL.

These binders were tested against T1, recombinant HA of full length H3 (A/Aichi/2/1968, full length) (Influenza A virus H3N2 A/Aichi/2/1968 …, UniProt P03437 17-530) (assay: ELISA; antigen coated 1 µg/ml; recombinant antibody).
T1 construct: domain: full length; also called H3N2 A/Aichi/2/1968 Full length; full-length H3 HA protein
Set-up: concentration or dose not given beside the values
In the case of B5, the “OD 450 nm” value is reported as 0.491 OD 450 nm. In the case of B1, the “OD 450 nm” value is reported as 0.953 OD 450 nm. For B2, the “OD 450 nm” value was 1.32 OD 450 nm. With B3 the “OD 450 nm” value was 0.92 OD 450 nm.
